Measurements reported in patent US20070259336A1.

Tests used:
[1] = molecular target: serum 34, colon cancer patient (Table 1) (human); assay: 5 ug MBP competitor preincubated with serum 34, then IP of Ruc-K-Ras
[2] = molecular target: serum 32, colon cancer patient (Table 1) (human); assay: 5 ug MBP competitor preincubated with serum 32, then IP of Ruc-K-Ras
[3] = molecular target: serum 15, head and neck cancer patient (Table 1) (human); assay: 5 ug MBP competitor preincubated with serum 15, then IP of Ruc-p53
[4] = molecular target: serum 22, breast cancer patient (Table 1) (human); assay: 5 ug MBP competitor preincubated with serum 22, then IP of Ruc-Smad4
[5] = molecular target: serum 34, colon cancer patient (Table 1) (human); assay: 5 ug MBP competitor preincubated with serum 34, then IP of Ruc-p53
[6] = molecular target: serum 35, colon cancer patient (Table 1) (human); assay: 5 ug MBP competitor preincubated with serum 35, then IP of Ruc-K-Ras
[7] = molecular target: serum 33, colon cancer patient (Table 1) (human); assay: 5 ug MBP competitor preincubated with serum 33, then IP of Ruc-p53
[8] = molecular target: serum 25, breast cancer patient (Table 1) (human); assay: 5 ug MBP competitor preincubated with serum 25, then IP of Ruc-c-Myc
[9] = molecular target: serum 24, breast cancer patient (Table 1) (human); assay: 5 ug MBP competitor preincubated with serum 24, then IP of Ruc-β-catenin-Δ1
[10] = molecular target: serum 12, head and neck cancer patient (Table 1) (human); assay: 5 ug MBP competitor preincubated with serum 12, then IP of Ruc-p53
[11] = molecular target: serum 27, breast cancer patient (Table 1) (human); assay: 5 ug MBP competitor preincubated with serum 27, then IP of Ruc-K-Ras
[12] = molecular target: serum 36, colon cancer patient (Table 1) (human); assay: 5 ug MBP competitor preincubated with serum 36, then IP of Ruc-Smad4

B1: MBP fusion containing the SPEC2 cDNA (protein, UniProt Q9NRR3 1-84, looked up, not shown: large carriers)
chain: MSEFWLCFNCCIAEQPQPKRRRRIDRSMIGEPTNFVHTAHVGSGDLFSGMNSVSSIQNQMQSKGGYGGGMPANVQMQLVDTKAG
percent competition [1]: 4% | percent competition [2]: 25% | percent competition [3]: 20% | percent competition [4]: 4% | percent competition [5]: 11% | percent competition [6]: 16% | percent competition [7]: 7% | percent competition [8]: 0% | percent competition [9]: 23% | percent competition [10]: 21% | percent competition [11]: 5% | percent competition [12]: 0%
